Results reported in US20140148387A1.

Experiments:
[1] = biological target: T1, activine type IIB receptor (ActRIIB) extracellular domain; assay: SPR, BIAcore 2000; analyte Ala-BMP-2, ligand ActRIIBecd; freeze-dried preparation preserved at 25 ± 2° C., relative humidity 60 ± 5%, for 3 months
T1 sequence (Q13705 19-137, species assumed, looked up): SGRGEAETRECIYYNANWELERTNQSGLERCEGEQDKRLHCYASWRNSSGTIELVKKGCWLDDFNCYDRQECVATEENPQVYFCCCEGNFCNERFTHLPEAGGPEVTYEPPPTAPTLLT

[2] = biological target: T1, activine type IIB receptor (ActRIIB) extracellular domain; assay: SPR, BIAcore 2000; analyte Ala-BMP-2, ligand ActRIIBecd; redissolved freeze-dried preparation at start of test
[3] = biological target: T1, activine type IIB receptor (ActRIIB) extracellular domain; assay: SPR, BIAcore 2000; analyte Ala-BMP-2, ligand ActRIIBecd; freeze-dried preparation preserved at 40 ± 2° C., relative humidity 75 ± 5%, for 3 months
[4] = biological target: T1, activine type IIB receptor (ActRIIB) extracellular domain; assay: SPR, BIAcore 2000; analyte Ala-BMP-2, ligand ActRIIBecd; freeze-dried preparation preserved at 5 ± 3° C. for 3 months

- Biacore assay, relative value to provisional reference substance of Ala-BMP-2 as 100% [1]: 98.9%
- Biacore assay, relative value to provisional reference substance of Ala-BMP-2 as 100% [2]: 98.2%
- Biacore assay, relative value to provisional reference substance of Ala-BMP-2 as 100% [3]: 97.7%
- Biacore assay, relative value to provisional reference substance of Ala-BMP-2 as 100% [4]: 100%
B1: active type human bone morphogenetic protein-2 homodimer added with an alanine residue to the N-terminus (ligand)
chain: AQAKHKQRKRLKSSCKRHPLYVDFSDVGWNDWIVAPPGYHAFYCHGECPFPLADHLNSTNHAIVQTLVNSVNSKIPKACCVPTELSAISMLYLDENEKVVLKNYQDMVVEGCGCR
